{
  "source": "the supplement of paper PMC9112550",
  "about": "“Optimization of the antimicrobial peptide Bac7 by deep mutational scanning” (BMC Biology, 2022);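 also: peptides expressed intracellularly from a pBAD plasmid library in pooled LB shake-flask culture, induced with 0.3% L-arabinose, DNA abundance read by NGS, three biological replicates, DESeq2 with apeglm shrinkage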",
  "data": [
    {"tested_on": "Escherichia coli TOP10", "experiment": "shrunken log2 fold change of peptide-encoding DNA abundance (4.5 h post-induction vs induction); higher = less antimicrobial activity (less host growth inhibition)", "conditions": "time post-induction: 4.5 h; library: site-saturation at positions 5, 18, 19, 20", "values": [
      {"sequence": "RRIRHRPPRLPRPRPRPIEPPRP", "shrunken log2 fold change": -0.133},
      {"sequence": "RRIRKRPPRLPRPRPRPAITPRP", "shrunken log2 fold change": 0.613},
      {"sequence": "RRIRIRPPRLPRPRPRPWCYPRP", "shrunken log2 fold change": -0.406},
      {"sequence": "RRIRNRPPRLPRPRPRPNHWPRP", "shrunken log2 fold change": -0.125},
      {"sequence": "RRIRWRPPRLPRPRPRPQPRPRP", "shrunken log2 fold change": 0.462},
      {"sequence": "RRIRIRPPRLPRPRPRPDRNPRP", "shrunken log2 fold change": -0.913},
      {"sequence": "RRIRGRPPRLPRPRPRPFWFPRP", "shrunken log2 fold change": 0.283},
      {"sequence": "RRIRYRPPRLPRPRPRPYMPPRP", "shrunken log2 fold change": -0.00804},
      {"sequence": "RRIRCRPPRLPRPRPRPYLPPRP", "shrunken log2 fold change": -1.2},
      {"sequence": "RRIRTRPPRLPRPRPRPKFKPRP", "shrunken log2 fold change": -0.225},
      {"sequence": "RRIRMRPPRLPRPRPRPIGRPRP", "shrunken log2 fold change": -0.00776},
      {"sequence": "RRIRDRPPRLPRPRPRPMMEPRP", "shrunken log2 fold change": 0.0314},
      {"sequence": "RRIRIRPPRLPRPRPRPSDTPRP", "shrunken log2 fold change": 0.00546},
      {"sequence": "RRIRDRPPRLPRPRPRPCLQPRP", "shrunken log2 fold change": -0.0105},
      {"sequence": "RRIRPRPPRLPRPRPRPLDEPRP", "shrunken log2 fold change": 0.102},
      {"sequence": "RRIRTRPPRLPRPRPRPTNHPRP", "shrunken log2 fold change": -0.622},
      {"sequence": "RRIRCRPPRLPRPRPRPDPKPRP", "shrunken log2 fold change": 0.0617},
      {"sequence": "RRIRPRPPRLPRPRPRPFDEPRP", "shrunken log2 fold change": -0.0622},
      {"sequence": "RRIRTRPPRLPRPRPRPALGPRP", "shrunken log2 fold change": 0.898},
      {"sequence": "RRIRDRPPRLPRPRPRPRTFPRP", "shrunken log2 fold change": -0.0632},
      {"sequence": "RRIRGRPPRLPRPRPRPIRDPRP", "shrunken log2 fold change": 0.0394},
      {"sequence": "RRIRIRPPRLPRPRPRPDFFPRP", "shrunken log2 fold change": -0.415},
      {"sequence": "RRIRCRPPRLPRPRPRPLWVPRP", "shrunken log2 fold change": -0.1},
      {"sequence": "RRIRSRPPRLPRPRPRPTPQPRP", "shrunken log2 fold change": 0.388},
      {"sequence": "RRIRQRPPRLPRPRPRPLMDPRP", "shrunken log2 fold change": 0.0125},
      {"sequence": "RRIRFRPPRLPRPRPRPQCLPRP", "shrunken log2 fold change": -0.0767},
      {"sequence": "RRIRTRPPRLPRPRPRPKHNPRP", "shrunken log2 fold change": -0.362},
      {"sequence": "RRIRCRPPRLPRPRPRPYDKPRP", "shrunken log2 fold change": -0.985},
      {"sequence": "RRIRRRPPRLPRPRPRPHKRPRP", "shrunken log2 fold change": 0.124},
      {"sequence": "RRIRARPPRLPRPRPRPEKCPRP", "shrunken log2 fold change": -0.15},
      {"sequence": "RRIRKRPPRLPRPRPRPFINPRP", "shrunken log2 fold change": -0.148},
      {"sequence": "RRIRRRPPRLPRPRPRPRLRPRP", "shrunken log2 fold change": 0.848},
      {"sequence": "RRIRMRPPRLPRPRPRPMCEPRP", "shrunken log2 fold change": 0.273},
      {"sequence": "RRIRTRPPRLPRPRPRPLNGPRP", "shrunken log2 fold change": -0.235},
      {"sequence": "RRIRYRPPRLPRPRPRPVYEPRP", "shrunken log2 fold change": 2.81},
      {"sequence": "RRIRRRPPRLPRPRPRPHNDPRP", "shrunken log2 fold change": 1.99},
      {"sequence": "RRIRARPPRLPRPRPRPISKPRP", "shrunken log2 fold change": -0.401},
      {"sequence": "RRIRWRPPRLPRPRPRPIMNPRP", "shrunken log2 fold change": -0.473},
      {"sequence": "RRIRQRPPRLPRPRPRPLKMPRP", "shrunken log2 fold change": -0.269},
      {"sequence": "RRIRWRPPRLPRPRPRPPYEPRP", "shrunken log2 fold change": -0.103},
      {"sequence": "RRIRVRPPRLPRPRPRPVINPRP", "shrunken log2 fold change": -0.712},
      {"sequence": "RRIRTRPPRLPRPRPRPIVGPRP", "shrunken log2 fold change": -0.0587},
      {"sequence": "RRIRMRPPRLPRPRPRPIPVPRP", "shrunken log2 fold change": 0.0294},
      {"sequence": "RRIRDRPPRLPRPRPRPVFAPRP", "shrunken log2 fold change": 0.597},
      {"sequence": "RRIRQRPPRLPRPRPRPKRLPRP", "shrunken log2 fold change": 0.281},
      {"sequence": "RRIRNRPPRLPRPRPRPNCEPRP", "shrunken log2 fold change": -0.185},
      {"sequence": "RRIRQRPPRLPRPRPRPNLLPRP", "shrunken log2 fold change": -0.0134},
      {"sequence": "RRIRLRPPRLPRPRPRPNFWPRP", "shrunken log2 fold change": 0.199},
      {"sequence": "RRIRTRPPRLPRPRPRPYWCPRP", "shrunken log2 fold change": -0.53},
      {"sequence": "RRIRIRPPRLPRPRPRPTVTPRP", "shrunken log2 fold change": -0.303},
      {"sequence": "RRIRNRPPRLPRPRPRPFGCPRP", "shrunken log2 fold change": -0.128},
      {"sequence": "RRIRLRPPRLPRPRPRPCVQPRP", "shrunken log2 fold change": -0.0514},
      {"sequence": "RRIRYRPPRLPRPRPRPHYAPRP", "shrunken log2 fold change": -0.0853},
      {"sequence": "RRIRWRPPRLPRPRPRPGMDPRP", "shrunken log2 fold change": 0.317},
      {"sequence": "RRIRRRPPRLPRPRPRPGVEPRP", "shrunken log2 fold change": 0.99},
      {"sequence": "RRIRDRPPRLPRPRPRPSQLPRP", "shrunken log2 fold change": -0.633},
      {"sequence": "RRIRCRPPRLPRPRPRPITIPRP", "shrunken log2 fold change": -0.261},
      {"sequence": "RRIRGRPPRLPRPRPRPLWSPRP", "shrunken log2 fold change": 0.117},
      {"sequence": "RRIRPRPPRLPRPRPRPGGRPRP", "shrunken log2 fold change": 0.461},
      {"sequence": "RRIRRRPPRLPRPRPRPTEGPRP", "shrunken log2 fold change": 0.18},
      {"sequence": "RRIRERPPRLPRPRPRPDNVPRP", "shrunken log2 fold change": 0.0262},
      {"sequence": "RRIRNRPPRLPRPRPRPQLDPRP", "shrunken log2 fold change": 0.112},
      {"sequence": "RRIRQRPPRLPRPRPRPWQMPRP", "shrunken log2 fold change": -0.0417},
      {"sequence": "RRIRQRPPRLPRPRPRPWSVPRP", "shrunken log2 fold change": -0.0201},
      {"sequence": "RRIRTRPPRLPRPRPRPTRDPRP", "shrunken log2 fold change": 0.136},
      {"sequence": "RRIRRRPPRLPRPRPRPMWSPRP", "shrunken log2 fold change": 0.311},
      {"sequence": "RRIRYRPPRLPRPRPRPLMEPRP", "shrunken log2 fold change": -0.318},
      {"sequence": "RRIRTRPPRLPRPRPRPMFLPRP", "shrunken log2 fold change": -0.593},
      {"sequence": "RRIRKRPPRLPRPRPRPVAWPRP", "shrunken log2 fold change": 0.315},
      {"sequence": "RRIRMRPPRLPRPRPRPQWGPRP", "shrunken log2 fold change": 0.0503},
      {"sequence": "RRIRWRPPRLPRPRPRPCVLPRP", "shrunken log2 fold change": -0.0369},
      {"sequence": "RRIRPRPPRLPRPRPRPQPHPRP", "shrunken log2 fold change": 0.138},
      {"sequence": "RRIRLRPPRLPRPRPRPSFMPRP", "shrunken log2 fold change": -0.309},
      {"sequence": "RRIRKRPPRLPRPRPRPEYMPRP", "shrunken log2 fold change": 0.264},
      {"sequence": "RRIRKRPPRLPRPRPRPFTLPRP", "shrunken log2 fold change": 0.0269}
    ]}
  ]
}
